Numbered stars: 1 amine (or outer) side, 2 acyl side, 3 side chain; on linkers, the order of the positions; unused ones are H or OH. Bridge positions count the residues as written; N and C are the ends. Square brackets hold non-standard residues; d marks the D form. Ends that are not written are not given here. * marks the point of attachment. X7 = 4‑(3,5-Dimethyl-1,2-oxazol-4-yl)‑L‑phenylalanine, Cc1noc(C)c1-c1ccc(C[C@H](N[*:1])C(=O)[*:2])cc1; Pro(trans-4-F) = O=C(O)[C@@H]1C[C@@H](F)CN1; Oic = O=C(O)[C@@H]1C[C@@H]2CCCC[C@@H]2N1; Morpholine(3S-CO) = O=C(O)[C@@H]1COCCN1; Butanoyl(3,3-Me2) = CC(C)(C)CC(=O)*; Cyclopropanecarbonyl = O=C(C1CC1)*; Hyp = O=C(O)[C@@H]1C[C@@H](O)CN1; aIle = CC[C@@H](C)[C@H](N)C(=O)O; tBuAla = CC(C)(C)C[C@H](N)C(=O)O; Pen = CC(C)(S)[C@H](N)C(=O)O; 4Amb = NCc1ccc(C(=O)O)cc1; Isovaleryl = CC(C)CC(=O)*; NMeC = CN[C@@H](CS)C(=O)O; Me2Gly = CN(C)CC(=O)*; Sar = CNCC(=O)O
T1: recombinant human MASP1 active protease (amino acids 297-699, C-terminal His Tag) (human, UniProt P48740 297-699)
T1 sequence: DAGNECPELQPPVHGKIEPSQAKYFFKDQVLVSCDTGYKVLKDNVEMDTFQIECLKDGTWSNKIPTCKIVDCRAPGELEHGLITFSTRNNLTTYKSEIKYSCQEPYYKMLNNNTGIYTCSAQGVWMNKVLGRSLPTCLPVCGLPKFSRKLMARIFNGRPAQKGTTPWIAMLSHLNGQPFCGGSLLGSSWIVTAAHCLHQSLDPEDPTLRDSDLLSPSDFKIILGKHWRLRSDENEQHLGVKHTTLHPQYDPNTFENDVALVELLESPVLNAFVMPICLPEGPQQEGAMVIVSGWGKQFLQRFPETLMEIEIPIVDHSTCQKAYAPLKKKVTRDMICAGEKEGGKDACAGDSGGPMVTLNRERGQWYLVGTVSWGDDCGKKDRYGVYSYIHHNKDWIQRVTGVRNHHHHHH

B1: Example 364: (Tranexamic)-IC+SRSLPPI-((N-Me)C)+IPD-NH2 (peptide)
peptide: Tranexamic-ICSRSLPPI[NMeC]IPD-NH2
modifications: disulfide 2-10
B2: Example 360: (4-(3,5-Dimethyl-1,2-oxazol-4-yl)-L-phenylalanine)-IC+SRSLP-(Oic)-I-(Pen)+IP-NH2 (peptide)
peptide: [X7]ICSRSLP[Oic]I[Pen]IP-NH2
modifications: disulfide 3-11; N-terminus assumed
SMILES: CC[C@H](C)[C@H](NC(=O)[C@@H](N)Cc1ccc(-c2c(C)noc2C)cc1)C(=O)N[C@H]1CSSC(C)(C)[C@@H](C(=O)N[C@H](C(=O)N2CCC[C@H]2C(N)=O)[C@@H](C)CC)NC(=O)[C@H]([C@@H](C)CC)NC(=O)[C@@H]2C[C@@H]3CCCC[C@@H]3N2C(=O)[C@@H]2CCCN2C(=O)[C@H](CC(C)C)NC(=O)[C@H](CO)NC(=O)[C@H](CCCNC(=N)N)NC(=O)[C@H](CO)NC1=O
B3: Example 367: ((N-Me)G)-IC+SRSLPPIC+I-(Oic)-D-OH (peptide)
peptide: [Sar]ICSRSLPPICI[Oic]D-OH
modifications: disulfide 3-11; N-terminus assumed
SMILES: CC[C@H](C)[C@H](NC(=O)CNC)C(=O)N[C@H]1CSSC[C@@H](C(=O)N[C@H](C(=O)N2[C@H](C(=O)N[C@@H](CC(=O)O)C(=O)O)C[C@@H]3CCCC[C@@H]32)[C@@H](C)CC)NC(=O)[C@H]([C@@H](C)CC)NC(=O)[C@@H]2CCCN2C(=O)[C@@H]2CCCN2C(=O)[C@H](CC(C)C)NC(=O)[C@H](CO)NC(=O)[C@H](CCCNC(=N)N)NC(=O)[C@H](CO)NC1=O
B4: Example 355: AIC+SRSLP-((3S-OH)P)-IC+IPD-NH2 (peptide)
peptide: AICSRSLP[(3S-OH)P]ICIPD-NH2
modifications: disulfide 3-11
B5: Example 359: (tert-Butylacetic acid)-IC+SRS-((tBu)A)-PPI-(Pen)+IP-NH2 (peptide)
peptide: {Butanoyl(3,3-Me2)}-ICSRS[tBuAla]PPI[Pen]IP-NH2
modifications: disulfide 2-10
SMILES: CC[C@H](C)[C@H](NC(=O)CC(C)(C)C)C(=O)N[C@H]1CSSC(C)(C)[C@@H](C(=O)N[C@H](C(=O)N2CCC[C@H]2C(N)=O)[C@@H](C)CC)NC(=O)[C@H]([C@@H](C)CC)NC(=O)[C@@H]2CCCN2C(=O)[C@@H]2CCCN2C(=O)[C@H](CC(C)(C)C)NC(=O)[C@H](CO)NC(=O)[C@H](CCCNC(=N)N)NC(=O)[C@H](CO)NC1=O
B6: Example 346: AIC+SRSLPP-(allo-I)-C+IPD-NH2 (peptide)
peptide: AICSRSLPP[aIle]CIPD-NH2
modifications: disulfide 3-11; N-terminus assumed
SMILES: CC[C@@H](C)[C@@H]1NC(=O)[C@@H]2CCCN2C(=O)[C@@H]2CCCN2C(=O)[C@H](CC(C)C)NC(=O)[C@H](CO)NC(=O)[C@H](CCCNC(=N)N)NC(=O)[C@H](CO)NC(=O)[C@@H](NC(=O)[C@@H](NC(=O)[C@H](C)N)[C@@H](C)CC)CSSC[C@@H](C(=O)N[C@H](C(=O)N2CCC[C@H]2C(=O)N[C@@H](CC(=O)O)C(N)=O)[C@@H](C)CC)NC1=O
B7: Example 353: (Cyclopropanecarboxylic)-IC+SRS-((tBu)A)-PPI-((N-Me)C)+I-NH2 (peptide)
peptide: Cyclopropanecarbonyl-ICSRS[tBuAla]PPI[NMeC]I-NH2
modifications: disulfide 2-10
SMILES: CC[C@H](C)[C@H](NC(=O)[C@@H]1CSSC[C@H](NC(=O)[C@@H](NC(=O)C2CC2)[C@@H](C)CC)C(=O)N[C@@H](CO)C(=O)N[C@@H](CCCNC(=N)N)C(=O)N[C@@H](CO)C(=O)N[C@@H](CC(C)(C)C)C(=O)N2CCC[C@H]2C(=O)N2CCC[C@H]2C(=O)N[C@@H]([C@@H](C)CC)C(=O)N1C)C(N)=O
B8: Example 352: (D-(+)Biotin)-(Ahx)-AIC+SRS-((tBu)A)-PPI-(Pen)+IPD-OH (peptide)
peptide: XXAICSRS[tBuAla]PPI[Pen]IPD-OH
modifications: disulfide 5-13; not fully specified (N-terminus); printed as (D-(+)Biotin)-(Ahx)-AIC + SRS-((tBu)A)-PPI-(Pen) + IPD-OH
B9: Example 358: (Isovaleric)-IC+SRS-((tBu)A)-PPI-((N-Me)C)+I-NH2 (peptide)
peptide: Isovaleryl-ICSRS[tBuAla]PPI[NMeC]I-NH2
modifications: disulfide 2-10
SMILES: CC[C@H](C)[C@H](NC(=O)[C@@H]1CSSC[C@H](NC(=O)[C@@H](NC(=O)CC(C)C)[C@@H](C)CC)C(=O)N[C@@H](CO)C(=O)N[C@@H](CCCNC(=N)N)C(=O)N[C@@H](CO)C(=O)N[C@@H](CC(C)(C)C)C(=O)N2CCC[C@H]2C(=O)N2CCC[C@H]2C(=O)N[C@@H]([C@@H](C)CC)C(=O)N1C)C(N)=O
B10: Example 357: GIC+SRSL-(Morpholine-3-carboxylic)-PIC+IPD-OH (peptide)
peptide: GICSRSL[Morpholine(3S-CO)]PICIPD-OH
modifications: disulfide 3-11
B11: Example 350: ((N,N-diMe)G)-IC+SRSLPPIC+IPD-NH2 (peptide)
peptide: [Me2Gly]ICSRSLPPICIPD-NH2
modifications: disulfide 3-11
SMILES: CC[C@H](C)[C@H](NC(=O)CN(C)C)C(=O)N[C@H]1CSSC[C@@H](C(=O)N[C@H](C(=O)N2CCC[C@H]2C(=O)N[C@@H](CC(=O)O)C(N)=O)[C@@H](C)CC)NC(=O)[C@H]([C@@H](C)CC)NC(=O)[C@@H]2CCCN2C(=O)[C@@H]2CCCN2C(=O)[C@H](CC(C)C)NC(=O)[C@H](CO)NC(=O)[C@H](CCCNC(=N)N)NC(=O)[C@H](CO)NC1=O
B12: Example 354: ((N-Me)G)-IC+SRSL-((trans-4-Fluoro)P)-PIC+IPD-OH (peptide)
peptide: [Sar]ICSRSL[Pro(trans-4-F)]PICIPD-OH
modifications: disulfide 3-11; N-terminus assumed
SMILES: CC[C@H](C)[C@H](NC(=O)CNC)C(=O)N[C@H]1CSSC[C@@H](C(=O)N[C@H](C(=O)N2CCC[C@H]2C(=O)N[C@@H](CC(=O)O)C(=O)O)[C@@H](C)CC)NC(=O)[C@H]([C@@H](C)CC)NC(=O)[C@@H]2CCCN2C(=O)[C@@H]2C[C@@H](F)CN2C(=O)[C@H](CC(C)C)NC(=O)[C@H](CO)NC(=O)[C@H](CCCNC(=N)N)NC(=O)[C@H](CO)NC1=O
B13: Example 362: (4-(Aminomethyl)benzoic acid)-IC+SRSLPPI-((N-Me)C)+IPD-NH2 (peptide)
peptide: [4Amb]ICSRSLPPI[NMeC]IPD-NH2
modifications: disulfide 3-11; N-terminus assumed
SMILES: CC[C@H](C)[C@H](NC(=O)c1ccc(CN)cc1)C(=O)N[C@H]1CSSC[C@@H](C(=O)N[C@H](C(=O)N2CCC[C@H]2C(=O)N[C@@H](CC(=O)O)C(N)=O)[C@@H](C)CC)N(C)C(=O)[C@H]([C@@H](C)CC)NC(=O)[C@@H]2CCCN2C(=O)[C@@H]2CCCN2C(=O)[C@H](CC(C)C)NC(=O)[C@H](CO)NC(=O)[C@H](CCCNC(=N)N)NC(=O)[C@H](CO)NC1=O
B14: Example 345: IC+SRS-((tBu)A)-PPI-(Pen)+I-NH2 (peptide)
peptide: ICSRS[tBuAla]PPI[Pen]I-NH2
modifications: disulfide 2-10; N-terminus assumed
SMILES: CC[C@H](C)[C@H](N)C(=O)N[C@H]1CSSC(C)(C)[C@@H](C(=O)N[C@H](C(N)=O)[C@@H](C)CC)NC(=O)[C@H]([C@@H](C)CC)NC(=O)[C@@H]2CCCN2C(=O)[C@@H]2CCCN2C(=O)[C@H](CC(C)(C)C)NC(=O)[C@H](CO)NC(=O)[C@H](CCCNC(=N)N)NC(=O)[C@H](CO)NC1=O
B15: Example 361: ((N-Me)G)-PIC+SRS-((tBu)A)-PPI-(Pen)+IP-NH2 (peptide)
peptide: [Sar]PICSRS[tBuAla]PPI[Pen]IP-NH2
modifications: disulfide 4-12; N-terminus assumed
SMILES: CC[C@H](C)[C@H](NC(=O)[C@@H]1CCCN1C(=O)CNC)C(=O)N[C@H]1CSSC(C)(C)[C@@H](C(=O)N[C@H](C(=O)N2CCC[C@H]2C(N)=O)[C@@H](C)CC)NC(=O)[C@H]([C@@H](C)CC)NC(=O)[C@@H]2CCCN2C(=O)[C@@H]2CCCN2C(=O)[C@H](CC(C)(C)C)NC(=O)[C@H](CO)NC(=O)[C@H](CCCNC(=N)N)NC(=O)[C@H](CO)NC1=O
B16: Example 349: ((N-Me)G)-IC+SRSLP-(Oic)-IC+IPD-OH (peptide)
peptide: [Sar]ICSRSLP[Oic]ICIPD-OH
modifications: disulfide 3-11; N-terminus assumed
SMILES: CC[C@H](C)[C@H](NC(=O)CNC)C(=O)N[C@H]1CSSC[C@@H](C(=O)N[C@H](C(=O)N2CCC[C@H]2C(=O)N[C@@H](CC(=O)O)C(=O)O)[C@@H](C)CC)NC(=O)[C@H]([C@@H](C)CC)NC(=O)[C@@H]2C[C@@H]3CCCC[C@@H]3N2C(=O)[C@@H]2CCCN2C(=O)[C@H](CC(C)C)NC(=O)[C@H](CO)NC(=O)[C@H](CCCNC(=N)N)NC(=O)[C@H](CO)NC1=O
B17: Example 348: GIC+SRSLPPIC+I-(Hyp)-D-OH (peptide)
peptide: GICSRSLPPICI[Hyp]D-OH
modifications: disulfide 3-11; N-terminus assumed
SMILES: CC[C@H](C)[C@H](NC(=O)CN)C(=O)N[C@H]1CSSC[C@@H](C(=O)N[C@H](C(=O)N2C[C@H](O)C[C@H]2C(=O)N[C@@H](CC(=O)O)C(=O)O)[C@@H](C)CC)NC(=O)[C@H]([C@@H](C)CC)NC(=O)[C@@H]2CCCN2C(=O)[C@@H]2CCCN2C(=O)[C@H](CC(C)C)NC(=O)[C@H](CO)NC(=O)[C@H](CCCNC(=N)N)NC(=O)[C@H](CO)NC1=O

Molecular target: recombinant human MASP2 active protease (amino acids 297-686, C-terminal His Tag) (human, UniProt O00187 297-686)
Sequence (O00187 other isoform, or with tags, fused parts or gaps limits assumed): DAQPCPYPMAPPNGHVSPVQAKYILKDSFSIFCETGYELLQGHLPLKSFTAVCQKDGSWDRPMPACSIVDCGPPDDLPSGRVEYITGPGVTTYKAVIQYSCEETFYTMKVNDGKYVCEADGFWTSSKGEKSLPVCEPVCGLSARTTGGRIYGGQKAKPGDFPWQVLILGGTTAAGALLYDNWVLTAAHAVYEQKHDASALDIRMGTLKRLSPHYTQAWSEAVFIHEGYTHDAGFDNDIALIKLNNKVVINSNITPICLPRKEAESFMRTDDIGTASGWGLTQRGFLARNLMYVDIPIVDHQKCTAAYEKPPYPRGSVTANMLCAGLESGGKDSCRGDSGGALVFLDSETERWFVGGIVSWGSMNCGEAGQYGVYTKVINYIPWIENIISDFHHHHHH
Test: cell-based or functional assay

Row | human MASP2 IC50 [nM] | Binder
1 | 98 | B1
2 | 55 | B2
3 | 600 | B3
4 | 930 | B4
5 | 34 | B5
6 | 190 | B6
7 | 50 | B7
8 | 71 | B8
9 | 19 | B9
10 | 1300 | B10
11 | 370 | B11
12 | 510 | B12
13 | 65 | B13
14 | 390 | B14
15 | 1000 | B15
16 | 420 | B16
17 | 690 | B17

Molecular target: T1, recombinant human MASP1 active protease …
Test: cell-based or functional assay

Row | human MASP1 IC50 [nM] | Binder
18 | 33 | B1
19 | 31 | B2
20 | 35 | B3
21 | 29 | B4
22 | 31 | B5
23 | 27 | B6
24 | 28 | B7
25 | 28 | B8
26 | 31 | B9
27 | 31 | B10
28 | 28 | B11
29 | 29 | B12
30 | 33 | B13
31 | 27 | B14
32 | 32 | B15
33 | 9.6 | B16
34 | 28 | B17

Source: patent US20210246166A1 (Bayer, published 2021)
